Assay results published in patent publication US20250333523A1 (Alector, published 2025).
Values joined by “and” are separate entries in the source; they are usually repeats but may differ in a detail not shown here. Equal values may be shown once. Read-outs that look alike come from different tables or passages of the source.

Experiments:
[1] = biological target: T1, Avi/His-HuIL18BPa (recombinant human IL-18BP isoform A with Avi and poly-His tags) (human, biotinylated with BirA on the Avi tag in some assays); assay: ELISA, coated IL-18BP
T1 construct: also called human IL-18BP-Avi-His
T1 chain: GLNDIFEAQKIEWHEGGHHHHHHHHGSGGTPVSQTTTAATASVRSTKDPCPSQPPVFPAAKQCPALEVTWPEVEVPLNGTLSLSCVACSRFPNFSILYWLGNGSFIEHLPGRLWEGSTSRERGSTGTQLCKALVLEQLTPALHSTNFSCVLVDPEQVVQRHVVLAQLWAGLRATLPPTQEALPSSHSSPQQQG

[2] = biological target: T2, Avi/HisMsIL18BPd (recombinant mouse IL-18BP with Avi and poly-His tags) (mouse, biotinylated with BirA on the Avi tag in some assays); assay: ELISA, coated IL-18BP
T2 construct: also called murine IL-18BP; IL-18BP-Avi-His (mouse)
T2 chain: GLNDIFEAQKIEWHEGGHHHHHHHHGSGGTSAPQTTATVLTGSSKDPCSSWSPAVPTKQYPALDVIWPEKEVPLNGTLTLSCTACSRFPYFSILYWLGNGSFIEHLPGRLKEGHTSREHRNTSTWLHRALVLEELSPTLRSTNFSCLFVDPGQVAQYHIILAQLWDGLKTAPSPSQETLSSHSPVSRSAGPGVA

[3] = biological target: T3, His/Avi-CynoIL18BP (recombinant cynomolgus IL-18BP with His and Avi tags) (cynomolgus monkey); assay: ELISA, coated IL-18BP
T3 construct: also called cynomolgus IL-18BP-Avi-His
T3 chain: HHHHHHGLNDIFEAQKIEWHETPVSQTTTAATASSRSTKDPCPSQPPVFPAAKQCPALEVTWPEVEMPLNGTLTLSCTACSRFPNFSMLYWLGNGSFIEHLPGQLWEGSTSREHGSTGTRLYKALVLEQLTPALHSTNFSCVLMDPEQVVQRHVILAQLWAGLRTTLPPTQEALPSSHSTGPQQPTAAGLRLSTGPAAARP

[4] = biological target: T1, Avi/His-HuIL18BPa (recombinant human …); assay: cell-based or functional assay
[5] = biological target: T2, Avi/HisMsIL18BPd (recombinant mouse …); assay: cell-based or functional assay
[6] = biological target: T3, His/Avi-CynoIL18BP (recombinant …); assay: cell-based or functional assay
[7] = biological target: T1, Avi/His-HuIL18BPa (recombinant human …); assay: SPR Carterra LSA, IgG immobilized
[8] = biological target: T3, His/Avi-CynoIL18BP (recombinant …); assay: SPR Carterra LSA, IgG immobilized
[9] = biological target: T1, Avi/His-HuIL18BPa (recombinant human …); assay: blocking ELISA, competitor human IL-18
[10] = biological target: T4, mouse IL-18BPd-human IgG Fc (R&D Systems, Cat. #122-BP-100) (mouse; human, UniProt Q9Z0M9 29-193); assay: blocking ELISA, competitor mouse IL-18
T4 construct: Bought; also called mouse IL-18BPd-Fc Chimera
T4 sequence (looked up): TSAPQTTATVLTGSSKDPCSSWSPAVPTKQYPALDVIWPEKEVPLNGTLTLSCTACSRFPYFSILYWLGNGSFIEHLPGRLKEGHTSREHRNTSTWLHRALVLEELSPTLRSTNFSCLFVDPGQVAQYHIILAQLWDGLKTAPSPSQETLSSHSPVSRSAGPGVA

[11] = biological target: T3, His/Avi-CynoIL18BP (recombinant …); assay: blocking ELISA, competitor rhesus IL-18
[12] = biological target: T1, Avi/His-HuIL18BPa (recombinant human …); assay: cell-based or functional assay
[13] = biological target: T2, Avi/HisMsIL18BPd (recombinant mouse …); assay: cell-based or functional assay
[14] = biological target: T1, Avi/His-HuIL18BPa (recombinant human …); assay: SPR Biacore T200, IgG captured on Protein A/G
[15] = biological target: T3, His/Avi-CynoIL18BP (recombinant …); assay: SPR Biacore T200, IgG captured on Protein A/G
[16] = biological target: T3, His/Avi-CynoIL18BP (recombinant …); assay: SPR Carterra LSA, IgG immobilized; WB = weak binding with KD > 1 µM

B1: anti-IL18BP antibody BP-13 (antibody, human IgG1, V domains shown)
VH: QVQLQQSGAELVRPGASVTLSCKASGYTFTDYEMHWVKQTPVHGLEWIGPIDPETGDTAYNQKFKGQATLTADKSSSTAYMELSSLTSEDSAVYYCTRGSRGVFDYWGQGTALTVSS
VL: DIVMTQSHKFMSTSVGDRVSITCKASQDVGTAVAWYQQKPGQSPKLLIYWASARHTGVPDRFTGSGSGTDFTLTISNVQSEDLADYFCQHYFNFPRTFGGGTKLEIT
For B1, the “ELISA binding ratio (fold-change over background)” value [1] was 44.7 fold over background, the “ELISA binding ratio (fold-change over background)” value [2] was 16.9 fold over background and the “ELISA binding ratio (fold-change over background)” value [3] was 49 fold over background. For the same binder, the “EC50 of IFNγ release, human PBMC” value [4] was 3.89 nM, the “Fold change of IFNγ at 10 µg/ml vs baseline, human PBMC” value (“Fold change of IFNγ … human PBMC” below) [4] was 11.8 fold and the “EC50 of IFNγ release, mouse splenocytes” value [5] was 640 nM. The “Fold change of IFNγ at 10 µg/ml vs baseline, mouse splenocytes” value (from here on “Fold change of IFNγ … mouse splenocytes”) [5] was 1.74 fold, the “% of Max Gamma, human NK cells” value [6] was 54.1% and the “EC50 of IFNγ release, human NK cells” value [6] was 39.7 nM. The Kd [7] was 7.2 nM, the Kd [8] was 0.3 nM and the “blocking ELISA signal normalized to isotype control (=1)” value (from here on “blocking ELISA signal normalized”) [9] was 0.128 ratio to isotype control. For the same binder, the “blocking ELISA signal normalized” value [10] was 0.53 ratio to isotype control and the “blocking ELISA signal normalized” value [11] was 0.331 ratio to isotype control.

B2: anti-IL18BP antibody BP-04 (antibody, V domains shown)
VH: HVHLHQSGAELVRPGVSVKISCRGSGYTFTDYDVHWVKQSHAKSLEWIGVISTYYGDVGYNQEFKGKATMTLDKSSSTSYLELARLTSEDSAIYYCARSGTYYYGTRESHALDYWGQGTSVTVSS
VL: DIQMTQSPASLSVSVGETVTITCRTSDNVYSNLAWYQQKQGKSPQLLVYGAINLADGVPSRFSGSGSDTQYSLKINNLQSEDFGSYYCQHFWGNPYTFGGGTKLEIK
notes: also called BP-04 (hybridoma); BP-04 (parental)
B2 was tested, and the “ELISA binding ratio (fold-change over background)” value [1] was 39.7 fold over background, the “ELISA binding ratio (fold-change over background)” value [2] was 39.1 fold over background and the “ELISA binding ratio (fold-change over background)” value [3] was 45.2 fold over background. The “EC50 of IFNγ release, human PBMC” value [4] was 0.67 nM, the “Fold change of IFNγ … human PBMC” value [4] was 19 fold and the “EC50 of IFNγ release, mouse splenocytes” value [5] was 4.29 nM. The “Fold change of IFNγ … mouse splenocytes” value [5] was 2.74 fold, the “% of Max Gamma, human NK cells” value [6] was 25.9% and the “EC50 of IFNγ release, human NK cells” value [6] was 2.41 nM. For the same binder, the “EC50 of IFNγ release, human PBMCs” value [12] was 15.7 nM, the “EC50 of IFNγ release, mouse splenocytes” value [13] was 14.9 nM and the Kd [7] was 0.8 nM. For the same binder, the Kd [8] was 3 nM, the “blocking ELISA signal normalized” value [9] was 0.165 ratio to isotype control and the “blocking ELISA signal normalized” value [10] was 0.122 ratio to isotype control. For the same binder, the “blocking ELISA signal normalized” value [11] was 0.943 ratio to isotype control, the Kd [14] was 1 nM and 1.1 nM and the koff [14] was 0.00059 s⁻¹ and 0.00062 s⁻¹. The kon [14] was 580000 M⁻¹ s⁻¹, the Kd [15] was 7.3 nM and 8.5 nM and the koff [15] was 0.0032 s⁻¹ and 0.0033 s⁻¹. For the same binder, the kon [15] was 440000 M⁻¹ s⁻¹ and 390000 M⁻¹ s⁻¹.

B3: anti-IL18BP antibody BP-10 (antibody, human IgG1, V domains shown)
VH: QVQLQQPGAERVEPGASVRLSCKTSGYTFTNYWMHWVKQRPGQGLEWIGMIHPESGSTNNNEKFKSKATLTVDKSSSTAYMQLSSLTSEDSAVYYCARWDRGYFDYWGQGTTLTVSS
VL: DIVMTQSHKFMSTSVGDRVSITCKASQDVRSTVGWYQQRPGQSPKLLIYWTSTRHTGVPDRFTGSGSGTDYTLTISSVQAEDLALYYCQQHYSTPYTFGGGTTLEIK
In the case of B3, the “ELISA binding ratio (fold-change over background)” value [1] is reported as 42.1 fold over background, the “ELISA binding ratio (fold-change over background)” value [2] is reported as 40.8 fold over background and the “ELISA binding ratio (fold-change over background)” value [3] is reported as 48.1 fold over background. The “EC50 of IFNγ release, human PBMC” value [4] was 2.05 nM, the “Fold change of IFNγ … human PBMC” value [4] was 15.5 fold and the “EC50 of IFNγ release, mouse splenocytes” value [5] was 538 nM. For the same binder, the “Fold change of IFNγ … mouse splenocytes” value [5] was 2.85 fold, the “% of Max Gamma, human NK cells” value [6] was 55.2% and the “EC50 of IFNγ release, human NK cells” value [6] was 6 nM. For the same binder, the Kd [7] was 1 nM, the Kd [8] was 0.02 nM and the “blocking ELISA signal normalized” value [9] was 0.067 ratio to isotype control. The “blocking ELISA signal normalized” value [10] was 0.326 ratio to isotype control and the “blocking ELISA signal normalized” value [11] was 0.28 ratio to isotype control.

B4: anti-IL18BP antibody BP-03 (antibody, human IgG1, V domains shown)
VH: EVQLQQSGPELVKPGASVKIPCKASGYTFTDYNMDWVKQSHGKSLEWIGNINTDNGGTVYNQKFKGKATLTVDQSSSTAYMELRSLTSEDTAVYYCARSDTTVVASRYYAMDYWGQGTSVTVSS
VL: DIVLTQSPASLAMSLGKRATISCRASESVSIIGTNLIHWYQQKPGQPPKLLIYHASNLETGVPARFSGSGSRTDFTLTIDPVEEDDVAIYYCLQSRKIPPTFGGGTKLEIK
In the case of B4, the “ELISA binding ratio (fold-change over background)” value [1] is reported as 41.9 fold over background, the “ELISA binding ratio (fold-change over background)” value [2] is reported as 41.6 fold over background and the “ELISA binding ratio (fold-change over background)” value [3] is reported as 36.5 fold over background. For the same binder, the “EC50 of IFNγ release, human PBMC” value [4] was 1.14 nM, the “Fold change of IFNγ … human PBMC” value [4] was 11.3 fold and the “EC50 of IFNγ release, mouse splenocytes” value [5] was 4.49 nM. For the same binder, the “Fold change of IFNγ … mouse splenocytes” value [5] was 5.93 fold, the Kd [7] was 4.1 nM and the Kd [8] was 2.34 nM. The “blocking ELISA signal normalized” value [9] was 0.151 ratio to isotype control, the “blocking ELISA signal normalized” value [10] was 0.157 ratio to isotype control and the “blocking ELISA signal normalized” value [11] was 0.996 ratio to isotype control.

B5: anti-IL18BP antibody BP-15 (antibody, human IgG1, V domains shown)
VH: QVQLVQSGAEVKKPGASVKVSCKASGYTFTTYDINWVRQAPGQGLEWMGIINPSGGSTSYAQKFQGRVTMTRDTSTSTVYMELSSLRSEDTAVYYCATGIGELDFDYWGQGTLVTVSS
VL: DIQMTQSPSSLSASVGDRVTITCRASQSISSYLNWYQQKPGKAPKLLIYKASTLHNGVPSRFSGSGSGTDFTLTISNLQPEDFATYYCQQAISFPLTFGGGTKVEIK
B5 was tested, and the “ELISA binding ratio (fold-change over background)” value [1] was 32.7 fold over background, the “ELISA binding ratio (fold-change over background)” value [2] was 30.1 fold over background and the “ELISA binding ratio (fold-change over background)” value [3] was 34.5 fold over background. The “EC50 of IFNγ release, human PBMC” value [4] was 100 nM, the “Fold change of IFNγ … human PBMC” value [4] was 36 fold and the “EC50 of IFNγ release, mouse splenocytes” value [5] was 5.85 nM. The “Fold change of IFNγ … mouse splenocytes” value [5] was 7.94 fold, the “% of Max Gamma, human NK cells” value [6] was 10% and the “EC50 of IFNγ release, human NK cells” value [6] was 0.000106 nM. For the same binder, the Kd [7] was 18.8 nM, the “blocking ELISA signal normalized” value [10] was 0.211 ratio to isotype control and the Kd [16] was greater than 1000 nM.

B6: anti-IL18BP antibody BP-12 (antibody, human IgG1, V domains shown)
VH: EVQLQQSGPELVKPGASVKMSCKTSGYTFTEYTMHWVKQSHGKSLEWIGGVNPNNGGTTYNQKFRDKATLTVDKSSSTTYMEVRTLTSDDSAVYYCAPLWRVFDYWGQGTTLTVSS
VL: DIVMTQSHKFMSSSVGDRVSITCKASQDVGTAVAWYQQKPGQSPKLLIYWASTRHTGVPDRFTGSGSGTDFTLTISNVQSEDLADYFCHQFSRYPLTFGAGTKLELK
With B6 the “ELISA binding ratio (fold-change over background)” value [1] was 43.2 fold over background, the “ELISA binding ratio (fold-change over background)” value [2] was 34.2 fold over background and the “ELISA binding ratio (fold-change over background)” value [3] was 44 fold over background. The “EC50 of IFNγ release, human PBMC” value [4] was 6.09 nM, the “Fold change of IFNγ … human PBMC” value [4] was 10.3 fold and the “EC50 of IFNγ release, mouse splenocytes” value [5] was 15.7 nM. The “Fold change of IFNγ … mouse splenocytes” value [5] was 1.88 fold, the “% of Max Gamma, human NK cells” value [6] was 76.5% and the “EC50 of IFNγ release, human NK cells” value [6] was 70 nM. The Kd [7] was 7.6 nM, the Kd [8] was 0.5 nM and the “blocking ELISA signal normalized” value [9] was 0.117 ratio to isotype control. For the same binder, the “blocking ELISA signal normalized” value [10] was 0.351 ratio to isotype control and the “blocking ELISA signal normalized” value [11] was 0.36 ratio to isotype control.
